Biological target: Recombinant PP35 gp156 tail spike protein (Dickeya bacteriophage PP35)
Test: SEC

For “Recombinant PP35 gp156 tail spike protein (natural protein)”, the stoichiometry N was 3.

Reference: article PMC6336734
